Measured values as given in publication PMC4728560, “TCTP contains a BH3-like domain, which instead of inhibiting, activates Bcl-xL” (Scientific Reports, 2016).

Molecular target: T1, Bcl-xL, recombinant protein (human, UniProt Q07817-1 1-233)
T1 construct: Bcl-xL, human; also called wild type Bcl-xL; source: purified recombinant protein; host and details in Supplementary Information
Assay: ITC; peptide titrated into Bcl-xL in the cell; 30 °C, 50 mM ammonium bicarbonate pH 9; ITC200 calorimeter
Details: both partners purified

T1 sequence (Q07817 whole entry): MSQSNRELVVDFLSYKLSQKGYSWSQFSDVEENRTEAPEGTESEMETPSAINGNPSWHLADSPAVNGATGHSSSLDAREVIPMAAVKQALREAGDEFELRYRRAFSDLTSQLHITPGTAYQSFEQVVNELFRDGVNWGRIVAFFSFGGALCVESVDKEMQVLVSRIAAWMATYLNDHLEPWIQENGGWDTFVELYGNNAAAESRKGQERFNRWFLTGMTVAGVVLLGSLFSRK

B1: hybrid Bax/TCTP peptide (TCTP BH3 peptide containing the Bax h1 (P1) sub-region) (peptide)
chain: QPPQDASTKKLSECIREIADGLCLEV
  Kd: 0.5 µM
